Data from patent US20240376183A1 (UNIVERSIT T ZU K LN, published 2024).

Molecular target: HIV-1 Env protein of virus strain 89-F1_2_25 (HIV-1)
Assay: cell-based or functional assay

| Binder | IC50, TZM-bl pseudovirus neutralization assay |
| --- | --- |
| antibody 1-18 (antibody, V domains shown) VH: QGRLFQSGAEVKRPGASVRISCRADDDPYTDDDTFTKYWTHWIRQAPGQRPEWLGVISPHFARPIYSYKFRDRLTLTRDSSLTAVYLELKGLQPDDSGIYFCARDPFGDRAPHYNYHMDVWGGGTAVIVSS VL: EVVLTQSPAILSVSPGDRVILSCRASQGLDSSHLAWYRFKRGQIPTLVIFGTSNRARGTPDRFSGSGSGADFTLTISRVEPEDFATYYCQRYGGTPITFGGGTTLDKK | 7 ng/mL |
| antibody 1-55 (antibody, V domains shown) VH: QRRLFQSGTEVKRPGASVKISCRADDDPYTDDDTFTKYYTHWIRQAPGQPPEWLGVISPHFARPIYSYKFRDRLTLTRDSSLTAVYFELRGLQPDDTGIYFCARDPFGDMYPHYNYHMDVWGGGTTVIVSA VL: EAVLTQSPAILSVSPGDRVILSCKASEGLSSSDLAWYRFKGGQIPTLVIFGASNRARGTPDRFSGSGSGTDFTLTINRVEPEDFATYYCQRYGGTPITFGGGTTLDKK | 14 ng/mL |
| antibody 2-12 (antibody, V domains shown) VH: QLVQSGGGVRRPGASVKISCETPEDTFTKYWLHWLRQAPGQGLEWMGVVSPHGGRPMFAFEFRDRLTLTRDIHTTTHFMELRGLTSDDTAVYYCARDPFGETFRGHDQPYRMDVWGGGTTIVVSS VL: EPVLTQSPGTLSVSPGEGATLSCRARQGFSADHVAWFQKKPGRPPRLLIFEASRRASGTPERFSGSGSGPEYTLTITRVEAEDFAVYYCQSYGSITPLVFGGGTRVDVK | 6 ng/mL |
